Data as given in the supplement of paper PMC9170038.

Tested on: MS2 coat protein
Assay: apparent KD of MS2 coat protein; designed switch direction (-1 OFF switch, 1 ON switch): -1; higher = weaker reporter binding
How it was run: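 The reported apparent KD is a per-design median over clusters, from curve fits of normalised cluster fluorescence. Protein titrations used SNAP-549-labelled MS2 coat protein, doubled from 0.7 or 1.5 nM to 3 µM, in Tris-HCl pH 7.5 buffer with KCl, MgCl2, BSA, DTT, tRNA and Tween-20, with no input, 200 uM small-molecule ligand, or an oligonucleotide input. The RNA switches were transcribed on Illumina chips by stalled E. coli RNA polymerase.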

[1] = input ligand: microRNA oligo, concentration not stated
[2] = Eterna round: R95, input ligand: microRNA oligo, concentration not stated

## CAGUACUGAGGAUAUACAUGAGGAUCACCCAUGUGUGUGAGAUUUGUGUGGUUGUUUUGUAGAAGGCGGUGCUG [JR_Ex3_Sub031] (Eterna round: R97, puzzle: Exclusion 3)
Input ligand: FMN 200 uM
  apparent KD of MS2 coat protein: 19.1 nM
Input ligand: none
  apparent KD of MS2 coat protein: 91.2 nM

## CUGCUCCGUGUAGGAUAUGCAUAUUCCCAUUAUGCAGAAGGACAUGAGGAUCACCCAUGUAUGUUAUUAUCAUGUGUUACAUGC [Design 9] (Eterna round: R96, puzzle: Exclusion NG 1)
Input ligand: FMN 200 uM
  apparent KD of MS2 coat protein: 203 nM
[1]
  apparent KD of MS2 coat protein: 24.9 nM
Input ligand: none
  apparent KD of MS2 coat protein: 33.2 nM

## ACAAAGGUAGGAUAUCGGACUAUGGACAUGAGGAUCACCCAUGUGCGUCCAAUGCCCAACCGAGAAGGACCAACAG [Isindiedbe] (puzzle: Exclusion 5)
[2]
  apparent KD of MS2 coat protein: 43.7 nM

## AUAAUGUGAGGAUAUCAGUCGACUAGCCUCGGCUAGUCGACUGAGAAGGCACAUGAGGAUCACCCAUGUGUUUC [E4/15-A2] (Eterna round: R97, puzzle: Exclusion 4)
Input ligand: FMN 200 uM
  apparent KD of MS2 coat protein: 43.9 nM
Input ligand: none
  apparent KD of MS2 coat protein: 18.4 nM

## AAAUAGGUAGGAUAUACAUGAGGAUCACCCAUGUGCUGCCGCGCGUCAAUCUCUUCACGUAGAAGGGCCCAGAC [Reveara] (Eterna round: R97, puzzle: Exclusion 3)
Input ligand: FMN 200 uM
  apparent KD of MS2 coat protein: 13.1 nM
Input ligand: none
  apparent KD of MS2 coat protein: 14.1 nM

## GUAAACGAAGAGGAUAUUUGAUAUCAUAGCUUCAAAGAAGGCUUCACAUGAGGAUCACCCAUGUGAUCUUCAAA [Mat - Exclusion 6 - JL Mod - D22] (Eterna round: R97, puzzle: Exclusion 6)
Input ligand: FMN 200 uM
  apparent KD of MS2 coat protein: 142 nM
Input ligand: none
  apparent KD of MS2 coat protein: 20.7 nM

## AAAAGGUCAGGAUAUCGGCGCGGUUGGGAGGCAGGUCCGCGCGAGAAGGGACAUGAGGAUCACCCAUGUUAAAA [Excls4-III] (puzzle: Exclusion 4)
[2]
  apparent KD of MS2 coat protein: 20.7 nM

## GAAAACGCUGAGGAUAUUUCUGAUCAAAGCAGCAAAGAAGGCAGCACAUGAGGAUCACCCAUGUGGUCUUCAAG [Mat - Exclusion 6 - JL Mod - D12] (Eterna round: R97, puzzle: Exclusion 6)
Input ligand: FMN 200 uM
  apparent KD of MS2 coat protein: 243 nM
Input ligand: none
  apparent KD of MS2 coat protein: 44.7 nM

## AAGCCACAUGAGGAUCACCCAUGUCAGGAUAUCUCGAAAAGCAUAGAAAUAUGCGAAGAGAGAAGGGACUACUC [ChP Ext 10-04-2015 #4] (puzzle: Exclusion 1)
[2]
  apparent KD of MS2 coat protein: 42.7 nM

## UGAGUGUGAGGAUAUGGUAAAGAUAAGAUGAUGAAAGAACUCCAGAAGGCACAUGAGGAUCACCCAUGUAGAUG [JL-ex4-2.12 Jieux mod] (puzzle: Exclusion 4)
Eterna round: R95, input ligand: FMN 200 uM
  apparent KD of MS2 coat protein: 81.1 nM
[2]
  apparent KD of MS2 coat protein: 35.4 nM
Eterna round: R95, input ligand: none
  apparent KD of MS2 coat protein: 35.7 nM

## AAAAGCCUAGGAUAUACUUGAGGAUCACCCAAGUAGGGUCGCAUGGACCCGUCCUCGUGUAGAAGGAGGAAAAG [Orreteceer] (Eterna round: R97, puzzle: Exclusion 3)
Input ligand: FMN 200 uM
  apparent KD of MS2 coat protein: 108 nM
Input ligand: none
  apparent KD of MS2 coat protein: 46.7 nM

## GUAGAGUCAGGAUAUACAGAAAGUGGCUGGAAAACAGUGGCACAUGAGGAUCACCCAUGUAGAAGGGACUCUAC [ChP 11-04-2015 #1] (puzzle: Exclusion 2)
[2]
  apparent KD of MS2 coat protein: 84.3 nM

## CUCGUGCAGCAAAGCUGUACGAGUACAUGAGGAUCACCCAUGUAGGAUAUGGUACGCAAAGCGUGCCAGAAGGACGUGCGUUAG [Mat - Exclusion NG 3 - Mod of JL - D94] (Eterna round: R96, puzzle: Exclusion NG 3)
Input ligand: FMN 200 uM
  apparent KD of MS2 coat protein: 92.5 nM
[1]
  apparent KD of MS2 coat protein: 19.5 nM
Input ligand: none
  apparent KD of MS2 coat protein: 49.7 nM

## ACGCAUUGCCUUUGGUAGUGCGUAACAUGAGGAUCACCCAUGUAGGAUAUGGUAGGCUUUGCUUACCAGAAGGACAUAAUAAAU [Mat - Exclusion NG 3 - Mod of JL - D2] (Eterna round: R96, puzzle: Exclusion NG 3)
Input ligand: FMN 200 uM
  apparent KD of MS2 coat protein: 52.7 nM
[1]
  apparent KD of MS2 coat protein: 25.1 nM
Input ligand: none
  apparent KD of MS2 coat protein: 28.8 nM

## AGCCUACAUGAGGAUCACCCAUGUCAGGAUAUCUCGCGACGUGUCGGGUUCACGUUGCAGAGAAGGGACUCGGG [Estibera] (puzzle: Exclusion 1)
[2]
  apparent KD of MS2 coat protein: 46.4 nM
